{"source": "the DeepSol protein solubility set"}
{"experiment": "soluble on expression in E. coli; label from the status in PepcDB or PDB records"}
{"sequence": "MAHHHHHHSLSLKGFVKVERRMADRTIKMLQSRGYFDSDYEIRHEGDYVLIPVKDGFTGPVVVKDAEKKPKVIPASGSFDIIGTIAITKKDDVEFAKEILKTHKNIKSVYLDKGVKGKERIRDLVLLAGIDSTVALYRENGCIFKIDVSKSYFSPRLATERRRLVDSILDGEFIVDMFAGSGPISIEVAKKRRVKIISIDINCAAIESLQESMRLNSLLGTITPICGDARQLIKDIHDADRIIMNHPTDAFSFLPCALEALKYGGHINYYEILNKDDVTKRLADFNFMRLKVFSYHRVHSYSKLSDLISFDLIREGEG", "soluble on expression in E. coli": "soluble"}
{"sequence": "MAHHHHHHVDDDDKMAGDSAAYQRTSLYGDDVVIVAAHRTPLCKSKRGNFKDTYPDDLLAPVLRALIEKTNLNPSEVGDIVVGTVLAPGSQRASECRMAAFYAGFPETVAVRTVNRQCSSGLQAVADVAAAIKAGFYDIGIGAGLESMTTNPMAWEGSVNPAVKKFAQAQNCLLPMGVTSENVAQRFGVSRQEQDQAAVDSHRKAAAATAAGKFKDEIIPVKTKLVDPKTGDEKPITVSVDDGIRPTTTLASLGKLKPVFKKDGTTTAGNSSQVSDGAGAVLLMKRSVAMQKGLPVLGVFRTFAAVGVDPAIMGIGPAVAIPAAVKAAGLELDDIDLFEINEAFASQFVYCRNKLGLDPEKINVNGGAMAIGHPLGATGARCVATLLHEMKRRGKDCRFGVVSMCIGTGMGAAAVFERGDGVDELRNARKVEAQGLLSKDAR", "soluble on expression in E. coli": "soluble"}
{"sequence": "MAHHHHHHVDDDDKMSLLDAHIPQLIASHTAFAAKAGLMRHTIGQAEQQAMSAQAFHQGESAAAFQGAHARFVAAAAKVNTLLDIAQANLGEAAGTYVAADAAAASSYTGF", "soluble on expression in E. coli": "soluble"}
{"sequence": "MAHHHHHHVGTGSNDDDDKAGLVEGQNYTVLANPIPQQQAGKVEVLEFFGYFCPHCAHLEPVLSKHAKSFKDDMYLRTEHVVWQKEMLTLARLAAAVDMAAADSKDVANSHIFDAMVNQKIKLQNPEVLKKWLGEQTAFDGKKVLAAYESPESQARADKMQELTETFQIDGTPTVIVGGKYKVEFADWESGMNTIDLLADKVREEQKAAQ", "soluble on expression in E. coli": "soluble"}
{"sequence": "MAHKQSTNNETSNGSTTEIIDETDARAQLESGRTTPTLLLRLEHPRNERRVAFHAGIIDNEHLNRKKSKCCCIYKKPLAFGESSSEDDEDCEHCFGHPEKRQRNAKHNHNHGDKPCTEASHPEGPSTSTQAAHISQPPAEPVESKTDPKPPTPGVDFEQTGSSMGHHHHHHSH", "soluble on expression in E. coli": "soluble"}
{"sequence": "MAHRAFIQVIITGTQVFGKAFAEAYRQAASQSVKQGATNASRRGTGKGEYGGITLDESCKILNIEESKGDLNMDKINNRFNYLFEVNDKEKGGSFYLQSKVYRAAERLKWELAQREKNAKAKAGDASTAKPPPNSTNSSGADNSASSNQ", "soluble on expression in E. coli": "not soluble"}
{"sequence": "MAHTGENVLKGLPLKAIALAIALSNPVSAQTLEQAVSITLASNPELKSAFNQFKSREYDAEASSGAYLPKIDLDAGIGYEAINPAESSGNRNTDLTRKDATLTLTQLIWDGSATLNDMDRTAAEAEADRYQLLADASNMALEVAKIYLDATKASEILTLSENNLAIHKDIYRDIKKRADSGIGSTADVTQVEARLAKAHSNLVAAQNNLFDIYTQFRRLVGQEPVSLEFPRADQNAIPPTLENALNMAQENHPVIKVAQADVDAARFQYKQSKAPNYPTLSFEAAQSWRNDAGGIEGSSDELSAMLRLRYNLYNGGSDSDRTESAAYQLNRSKDLREKTFRTVEEGLRLSWSALDLTLQQKQFLADHVDSASKTVVSYRKQYQIGQRTLLDLLNTENELFEARKDYLDARYAEQYAKYRVMNASGNLLDALRVDIPQEWTAKVEY", "soluble on expression in E. coli": "not soluble"}
{"sequence": "MAHTRSLQMLKAHSTRSALRQPQKKETGTNGNDPSVAPKNAQADSGKDERRGSQAMGWSCFGGCIKDEIFSVFGIGRKIIGRV", "soluble on expression in E. coli": "not soluble"}
{"sequence": "MAHTTGENLFTMKRVLRNLEADHDALREALADGRRMRDLLPYGDYINRYRNLTRDPMVVAIHKQFHESGLGGLTIDESMFPLSLRFEDDDVTLVFRRPEGFRHGTNEESSQRPLIERRSRIVLFWKYAEPGTDALKRISLQMFDNEGPLEEATMLSEKIPLLTKPESLTTAMFIPTHADEPRFVFGS", "soluble on expression in E. coli": "not soluble"}
{"sequence": "MAIDNIKAYVHLSDADIEEIGRRLDQIKAEVTQSLGARDVAYIKRLIRTQRSLEAAGRFALLFAGNKKCWWLGTGLLSTAKILENLEIGHNVLHGQWDWMNDPEIHSTTWEWDIVCPSSQWMHSHNFVHHTYTNVLGMDNDVGYGILRVTRDRKWTPLHAFQPAVNTVLAAMFQWAVGYYDVELGRYLTKRADWNDTKDKFWETTNKAGRQLARDYVFYPALARKAFPQAVKANAVANLVRSVWAYSVIFCGHFPDEAETFTKEQFKNEDHNQWYLRQMLGSANFYGGKLLTIMSGNLNYQIEHHLFPDMPSNRLAEVGEKVRALCDEYDLPYNVDSFPAQLFKVQKTLLKLTLPNKYLVASPDNAPEVRSNRAFSQNPELEHHHHHH", "soluble on expression in E. coli": "soluble"}
{"sequence": "MAIFSRTKRVTDPLDDDAKARILSSHSYILDQDSPRLCELVHGFLEDGPEESFYDSDPDLSETSSAEHSGEASVEIVRMAVSFSDSDPYRNLLLAHVLRAVEVYSGFRSRNKTVFRDKVASFLRELGHDAAVCVSKWTSSSKLIAGSYHFIDVVHKPSDNDQKAVRYLVDLDFASEFEIARPTREYTRGLQLLPNVFVGNEENLRTIVRESCDAAKRSMKSRGLSLPPWRRSSYLQHKWFGPYKRKVGSSLGVKPLNSDAVSCRSLGFDDGAVNTRLFIRA", "soluble on expression in E. coli": "soluble"}
{"sequence": "MAIGGWIKLYRTIQDHWIWENPQYLKWWLDLIFMANHQDRKILFDGELKTVKVGERITSEKKLSERWEVSRNTVRKFLDLLVKDDMIELSRSRQNGTWYKVSNYAEYQNFSEIKKQRTEQRREQQAAHQTEQRTEHKQEPKEPKNLRNNNNNNKGAFIRSIWENNGFGLMSSKTMTDFDYWISDFEKIGASQKEAEQLIVKAIEIAIDANARNYNYINAILKDWEQRGFKSVEEREAARKQKKTTKKQKSNTGHSDYDDLGF", "soluble on expression in E. coli": "not soluble"}
{"sequence": "MAIIASTFGTGLSYAGELPFKPVTGGEVGRKQQRMVVVRAEGGGGINPEIRKNEDKVVDSVVVTELSKNITPYCRCWRSGTFPLCDGSHVKHNKANGDNVGPLLLKKQ", "soluble on expression in E. coli": "soluble"}
{"sequence": "MAIKFQYNKTSLQQQEKQLKMRERTLPTIKSKESALRLEVKRTKDEVERLERQLEEEIVGYRSMVSLWNEFKPDLISVEGVKLSAKKVAGVVVPVLDDISYTIKPFSLFNAPSWFAEGIDLLKNLAHTGIEAEFLGLKLEFLEYARKKTTQKVNLFEKVQIPGYKDAIRKIKRYLEDEESLSKSSQKIMRANMEKRNKGEEVMA", "soluble on expression in E. coli": "not soluble"}
{"sequence": "MAIRVIGTGFGRTGTDSMREALTILGFGPCHHMSEVMGNEDQKRLWRALAKGAAPDWNQLFAGYASCIDWPSAHYWRDLIEFYPKARVILTYRSPESWWASFEKTILAGISQSTDQESLGLALISRQVFDGRPHDRANAIAVYEANVRAVIATVPPSRLLVHNLGDGWKPLCLHLDVPLEHHHHHH", "soluble on expression in E. coli": "not soluble"}
{"sequence": "MAISLQKGQRISLSKEAPGLSKMMCGLGWDVAKRSGGGFFSNFGGGGQNYDLDASVICLDANGKLTAKENIIYFGNLQHLSGAITHTGDNLTGAGDGDDEVIIVDLPRIPAQIVKLVFVVNIYDCIARKQDFSQIENAFVRLVNAANNKELARYNLSGKEYLGMTGMVLAEVYRHNDDWKLAAIGNGVNVNGLGELAGSYS", "soluble on expression in E. coli": "not soluble"}
{"sequence": "MAISVFDLFSIGIGPSSSHTVGPMRAARMFARRLRNEELLDSVASVRVELYGSLGATGHGHGTPKAVLLGLEGDSPRTVDVESADDRVETIKSSGRISLLGDHEIAFAYDDDMVLHRRKALPYHANGMTLWAYDAEGAEVLTKTYYSVGGGFVVDEDAVGADRIVLDDTVLKYPFRTGDELLRLARETGLSISALMLENERAWRDEDEIREGLLEIWRVMRACVDRGMTREGILPGGLKVRRRAANTARKLRSEGDPQALAMEWITLYAMAVNEENAAGGRVVTAPTNGAAGIIPAVLHYYMNFVPGADEDGVVRFLLAAGAIGMLFKENASISGAEVGCQGEVGSACSMAAGALAEVLGGSPEQVENAAEIGMEHNLGLTCDPVGGLVQIPCIERNGMAAVKAVTAARMAMRGDGSHKVSLDKVIKTMKETGADMSVKYKETARGGLAVNIIEC", "soluble on expression in E. coli": "not soluble"}
{"sequence": "MAIYADNSYSIGNTPLVRLKHFGHNGNVVVKIEGRNPSYSVKCRIGANMVWQAEKDGTLTKGKEIVDATSGNTGIALAYVAAARGYKITLTMPETMSLERKRLLCGLGVNLVLTEGAKGMKGAIAKAEEIVASDPSRYVMLKQFENPANPQIHRETTGPEIWKDTDGKVDVVVAGVGTGGSITGISRAIKLDFGKQITSVAVEPVESPVISQTLAGEEVKPGPHKIQGIGAGFIPKNLDLSIIDRVETVDSDTALATARRLMAEEGILAGISSGAAVAAADRLAKLPEFADKLIVVILPSASERYLSTALFEGIEG", "soluble on expression in E. coli": "soluble"}
{"sequence": "MAKDIEISASESKFILEALRQNYRLDGRSFDQFRDVEITFGKEFGDVSVKMGNTKVHCRISCQIAQPYEDRPFEGLFVISTEISPMAGSQFENGNITGEDEVLCSRIIEKSVRRSGALDVEGLCIVAGSKCWAVRADVHFLDCDGGFIDASCIAVMAGLMHFKKPDITVHGEQIIVHPVNEREPVPLGILHIPICVTFSFFNPQDTEENIKGETNSEISIIDATLKEELLRDGVLTVTLNKNREVVQVSKAGGLPMDALTLMKCCHEAYSIIEKITDQILQLLKEDSEKRNKYAAMLTSENAREI", "soluble on expression in E. coli": "soluble"}
{"sequence": "MAKEFLIELGTEELPPTQLRTLAEAFAANFEAELKGAELAHEGVKWFAAPRRLALKVAALAESQSDKVVEKRGPAVSAAFDAEGNPTKAAQGWARGCGITVDQADRMVTDKGEWLLFKQEVKGQPTSEIVVELAAKALANLPIAKPMRWGNKTTQFIRPVKTLTMLMGSDLIEGEILGVASSRTIRGHRFMGEKEFTIDSAEQYPAILEERGKVMADYEARKAIILADAQKAAAAVGGIADLEDDLVEEVTSLVEWPVVLTAKFEEEFLKVPSEALVYTMKGDQKYFPVYDENKKLLPNFIFVSNIESKEPRYVIEGNEKVVRPRLADAEFFFNTDRKRPLIDRLPELEQAIFQQQLGTIKDKTDRITELAGYIAEQIGADVEKSKRAGLLAKCDLMTSMVFEFTDTQGVMGMHYARHDGEAEEVAVALNEQYMPRFAGDELPSNGVSTAVAMADKLDTIVGIFGIGQAPKGSDPFALRRASLGVLRIIVEYGYNLDLVDLVAKAKSLFGDRLTNDNVEQDVIEFMLGRFRAWYQDEGFSVDIIQAVLARRPTK", "soluble on expression in E. coli": "not soluble"}
{"sequence": "MAKENPFTPFSDWTKHWQQFFQNDFWGSIQPLLPSSNKPSSGMNIYKKDNELLVVISLPGLEKIEDAEVYVSYKTLEVKATINLNFKGFELVEEGLFQGQFQKTIPLPFAVKEDRIEATYHNGLLFIHLHRLIPDEPKKKIVIKKSE", "soluble on expression in E. coli": "not soluble"}
{"sequence": "MAKENPPIVFGPVLSRRFGKSLGVDLSPSKKQCNYNCIYCELGKAKPIERMEEVIKVETLINAIQNALNNLTTPIDVLTITANGEPTLYPHLLELIQSIKPFLKGVKTLILSNGSLFYEPKVQQALKEFDIVKFSLDAIDLKAFERVDKPYSKDINKILEGILRFSQIYQGQLVAEVLLIKGVNDSANNLKLIAAFLKQINIARVDLSTIDRPSSFKAPKLSEDELLKCSLFFEGLCVSLPKRSITQAKKLISCGIDELLALISRRPLSAEEAPLILDSNAFKHLETLLNHKQITIKKVGSLEFYCAFLEHHHHHH", "soluble on expression in E. coli": "not soluble"}
